This is an account of results in PMC7072198 (2020).

The assay deals with EGFR extracellular domain (ECD), wild type (human, UniProt P00533 25-645). The assay is described as follows: SPR. (In SPR one partner is held on a chip, and binding of the other changes the refractive index at the surface.)

B1: rLZ-8^(Mut 3) (K16A/S18A/K41A/D45A) (natural protein)
chain: SDTALIFRLAWDVKALAFDYTPNWGRGNPNNFIDTVTFPAVLTAKAYTYRVAVSGRNLGVKPSYAVESDGSQKVNFLEYNSGYGIADTNTIQVFVVDPDTNNDFIIAQWN
What is called Kd is the equilibrium constant for the complex coming apart. Regarding B1, the Kd was determined as 9.22 nM.

B2: recombinant Lingzhi-8 (rLZ-8), wild type (natural protein)
chain: MSDTALIFRLAWDVKKLSFDYTPNWGRGNPNNFIDTVTFPKVLTDKAYTYRVAVSGRNLGVKPSYAVESDGSQKVNFLEYNSGYGIADTNTIQVFVVDPDTNNDFIIAQWN
Turning to B2, the Kd turned out to be 4.75 nM.
